B1: Xerocomus chrysenteron lectin with histidine tag and TEV site (natural protein, UniProt Q8WZC9 1-143, looked up)
chain: MSYSITLRVYQTNRDRGYFSIVEKTVWHFANGGTWSEANGAHTLTQGGSGTSGVLRFLSTKGERITVAVGVHNYKRWCDVVTGLKPDETALVINPQYYNNGGRDYVREKQLAEYSVTSAIGTKVEVVYTVAEGNNLEANVIFS
notes: lectin from the mushroom Xerocomus chrysenteron (XCL); expressed as a fusion of histidine tag, TEV site and XCL; The fits used the monomer concentration; also called XCL; XCLtag
B2: fetuin from fetal bovine serum (natural protein, UniProt P12763 19-359, looked up)
chain: IPLDPVAGYKEPACDDPDTEQAALAAVDYINKHLPRGYKHTLNQIDSVKVWPRRPTGEVYDIEIDTLETTCHVLDPTPLANCSVRQQTQHAVEGDCDIHVLKQDGQFSVLFTKCDSSPDSAEDVRKLCPDCPLLAPLNDSRVVHAVEVALATFNAESNGSYLQLVEISRAQFVPLPVSVSVEFAVAATDCIAKEVVDPTKCNLLAEKQYGFCKGSVIQKALGGEDVRVTCTLFQTQPVIPQPQPDGAEAEAPSAVPDAAGPTPSAAGPPVASVVVGPSVVAVPLPLHRAHYDLRHTFSGVASVESSSGEAFHVGKTPIVGQPSIPGGPVRLCPGRIRYFKI
modifications: three carbohydrate units O-linked to Thr or Ser residues and three complex glycans N-linked to Asn residues (a fourth O-linked residue may exist); exposed Gal residues linked to sialic acid residues
notes: fetuin (fetuin-A, alpha-2-HS-glycoprotein), bovine, from fetal bovine serum; glycoprotein bearing the Thomsen-Friedenreich antigen motif; also called native fetuin; source: bought: Sigma (from fetal bovine serum)
B3: asialofetuin from fetal bovine serum (natural protein, UniProt P12763 19-359, looked up)
chain: B2 chain
modifications: O-linked and N-linked glycans as in fetuin, but the sialic acid residues are absent
notes: fetuin (fetuin-A, alpha-2-HS-glycoprotein), bovine, from fetal bovine serum, without sialic acids (asialofetuin); Same polypeptide as fetuin; it differs only in lacking sialic acid on the glycans; source: bought: Sigma (from fetal bovine serum)

For experiment [1], the target named is T1, XCL (XCLtag), Xerocomus chrysenteron lectin (Xerocomellus chrysenteron, UniProt Q8WZC9).
T1 construct: recombinant, E. coli BL21(DE3); homotetramer
T1 sequence (Q8WZC9 1-143): B1 chain
In words: isothermal titration calorimetry. Type of experiment: binding. As to conditions: 25 mM sodium phosphate pH 7, 27°C. Background: Isothermal titration calorimetry measures the heat released or taken up as one component is titrated into another.

Experiment [2] has as its target B3. The experiment is described as follows: ITC; 2 mM fetuin or asialofetuin titrated (38 injections of 5 ul) into 0.25 mM XCLtag in the cell; 27°C; 25 mM Na2HPO4/NaH2PO4, pH 7; XCL monomer concentration used in the fit. As to conditions: both partners purified.
Experiment [3] deals with B2. Described as above. As to conditions: both partners purified.
The target in experiment [4] is B1. The experiment is described as above. As to conditions: both partners purified.
Experiment [5] concerns the target B1. The experiment is described as above. As to conditions: both partners purified. The source holds these as a separate data set.

`CC(=O)N[C@H]1C(O)O[C@H](CO)[C@H](O)[C@@H]1O` (some centres unmarked) [N-acetylgalactosamine]: the “Ka, M^-1” value in experiment [1] (no PEG, per monomer, abstract prints Kd 5.2 μM, inconsistent with this Ka (reciprocal 5.2 mM)) worked out at 192 ± 5.

Regarding `CC(=O)N[C@H]1C(O)O[C@H](CO)[C@@H](O[C@@H]2O[C@H](CO)[C@H](O)[C@H](O)[C@H]2O)[C@@H]1O` (some centres unmarked) [N-acetyllactosamine], the Kd in experiment [1] (significant fitting errors stated for Ka below 100 M^-1, read-out: affinity constant (converted)) is approximately 20 mM.

As for B1, the Ka is 2.59e+06 ± 0.6 M⁻¹ in experiment [2] and 590000 ± 1.4 M⁻¹ in experiment [3].

A word on the stoichiometry N: it is the number of molecules, sites or subunits per partner or assembly. Consider B2, for which the “stoichiometry N” value in experiment [4] amounted to 0.23. For the same molecule, the dH in experiment [5] is -21.5 ± 0.5 kcal/mol.

On to B3, for which the “stoichiometry N” value in experiment [4] came out at 0.23. In experiment [5], the dH is -16.8 ± 2.5 kcal/mol.

The record behind these values is PMC1166539, “Determination of thermodynamic parameters of Xerocomus chrysenteron lectin interactions with N-acetylgalactosamine and Thomsen-Friedenreich antigen by isothermal titration calorimetry” (BMC Biochemistry, 2005).
